91 sequences from the supplement of paper PMC9112550, “Optimization of the antimicrobial peptide Bac7 by deep mutational scanning” (BMC Biology, 2022) can be followed below.

The data set has as its system Escherichia coli TOP10. Put plainly: shrunken log2 fold change of peptide-encoding DNA abundance (4.5 h post-induction vs induction); higher = less antimicrobial activity (less host growth inhibition). Particulars: time post-induction: 4.5 h; library: site-saturation at positions 5, 18, 19, 20.
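Note: peptides expressed intracellularly from a pBAD plasmid library in pooled LB shake-flask culture, induced with 0.3% L-arabinose, DNA abundance read by NGS, three biological replicates, DESeq2 with apeglm shrinkage.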

As for RRIRSRPPRLPRPRPRPSNRPRP, the “shrunken log2 fold change” value is -0.114.
The figure for RRIRIRPPRLPRPRPRPLESPRP is 0.0516; for RRIRGRPPRLPRPRPRPENKPRP it is 0.32.
In the case of RRIRRRPPRLPRPRPRPAREPRP, the “shrunken log2 fold change” value is 0.925.
For the sequence RRIRARPPRLPRPRPRPRATPRP, the “shrunken log2 fold change” value came out at 0.581.
The figure for RRIRYRPPRLPRPRPRPPARPRP is 0.119.
To RRIRQRPPRLPRPRPRPNAQPRP belongs 0.0116; to RRIRARPPRLPRPRPRPKMTPRP, 0.365.
Take RRIRWRPPRLPRPRPRPCSVPRP: the “shrunken log2 fold change” value turned out to be 0.0151.
The figure for RRIRNRPPRLPRPRPRPSMGPRP is -0.0455.
The figure for RRIRGRPPRLPRPRPRPRPGPRP is 1.34; for RRIRGRPPRLPRPRPRPKNDPRP it is 0.698; for RRIRVRPPRLPRPRPRPQSYPRP it is -0.461.
The figure for RRIRVRPPRLPRPRPRPMMSPRP is 0.00438.
With RRIRRRPPRLPRPRPRPAWFPRP, the “shrunken log2 fold change” value is 0.22.
RRIRNRPPRLPRPRPRPDGLPRP: the “shrunken log2 fold change” value worked out at 0.038.
The figure for RRIRERPPRLPRPRPRPDPEPRP is -0.159; for RRIRGRPPRLPRPRPRPDSGPRP it is 0.128; for RRIRGRPPRLPRPRPRPMGGPRP it is 0.458.
To RRIRYRPPRLPRPRPRPVAYPRP belongs -0.926; to RRIRDRPPRLPRPRPRPTDTPRP, 0.146; to RRIRSRPPRLPRPRPRPYDWPRP, -0.102.
As to RRIRGRPPRLPRPRPRPNADPRP, the “shrunken log2 fold change” value was determined as 2.38.
Regarding RRIRKRPPRLPRPRPRPSVSPRP, the “shrunken log2 fold change” value was determined as 0.172.
To RRIRHRPPRLPRPRPRPAVLPRP belongs 0.0684; to RRIRERPPRLPRPRPRPHWLPRP, -0.128; to RRIRNRPPRLPRPRPRPAGHPRP, 0.133.
To RRIRMRPPRLPRPRPRPCIYPRP belongs 0.0933; to RRIRARPPRLPRPRPRPYECPRP, -0.327.
Consider RRIRPRPPRLPRPRPRPEANPRP, for which the “shrunken log2 fold change” value is 0.473.
The figure for RRIRDRPPRLPRPRPRPYTSPRP is 0.0448; for RRIRTRPPRLPRPRPRPQSFPRP it is 0.015; for RRIRFRPPRLPRPRPRPGYIPRP it is -0.0716.
To RRIRIRPPRLPRPRPRPVPYPRP belongs -0.556; to RRIRGRPPRLPRPRPRPATLPRP, 0.393.
To RRIRHRPPRLPRPRPRPTGTPRP belongs -0.0618; to RRIRVRPPRLPRPRPRPWFHPRP, -0.711.
With RRIRKRPPRLPRPRPRPECYPRP, the “shrunken log2 fold change” value is -0.0555.
To RRIRFRPPRLPRPRPRPIPWPRP belongs -0.14; to RRIRHRPPRLPRPRPRPVYNPRP, -0.303.
The figure for RRIRRRPPRLPRPRPRPEVHPRP is 0.648; for RRIRIRPPRLPRPRPRPPAMPRP it is 1.68.
The figure for RRIRLRPPRLPRPRPRPQQLPRP is -0.106; for RRIRNRPPRLPRPRPRPHCQPRP it is -0.861.
Turning to RRIRNRPPRLPRPRPRPPCGPRP, the “shrunken log2 fold change” value stood at 0.317.
The figure for RRIRKRPPRLPRPRPRPFVWPRP is -0.0438; for RRIRQRPPRLPRPRPRPMSCPRP it is 0.029; for RRIRLRPPRLPRPRPRPNMKPRP it is -0.173.
The figure for RRIRKRPPRLPRPRPRPRRYPRP is 0.47; for RRIRIRPPRLPRPRPRPPMTPRP it is -0.0813; for RRIRIRPPRLPRPRPRPFLAPRP it is -0.493.
To RRIRKRPPRLPRPRPRPAKDPRP belongs 0.247; to RRIRERPPRLPRPRPRPHFCPRP, -0.117.
On to RRIRYRPPRLPRPRPRPCYVPRP, for which the “shrunken log2 fold change” value was -0.0553.
To RRIRCRPPRLPRPRPRPYTFPRP belongs -0.883; to RRIRTRPPRLPRPRPRPLVEPRP, -0.0326; to RRIRIRPPRLPRPRPRPHDQPRP, -0.573.
To RRIRCRPPRLPRPRPRPKASPRP belongs -0.00163; to RRIRDRPPRLPRPRPRPMKKPRP, 0.0162; to RRIRWRPPRLPRPRPRPHCKPRP, -0.233.
The figure for RRIRARPPRLPRPRPRPPQMPRP is 0.868; for RRIRMRPPRLPRPRPRPRYAPRP it is 0.467.
For the sequence RRIRKRPPRLPRPRPRPHQFPRP, the “shrunken log2 fold change” value was -0.114.
To RRIRVRPPRLPRPRPRPEKWPRP belongs 0.0257.
To RRIRWRPPRLPRPRPRPWLDPRP belongs -0.231; to RRIRLRPPRLPRPRPRPNHDPRP, -0.333; to RRIRSRPPRLPRPRPRPPPNPRP, 0.707.
Consider RRIRVRPPRLPRPRPRPSSGPRP, for which the “shrunken log2 fold change” value is -0.39.
The figure for RRIRLRPPRLPRPRPRPYPKPRP is -0.0574; for RRIRHRPPRLPRPRPRPTCLPRP it is -0.0796.
To RRIRDRPPRLPRPRPRPSENPRP belongs -0.0386; to RRIRVRPPRLPRPRPRPRPCPRP, 0.322; to RRIRPRPPRLPRPRPRPTWSPRP, 0.324.
As for RRIRPRPPRLPRPRPRPAFKPRP, the “shrunken log2 fold change” value came out at 0.192.
The figure for RRIRIRPPRLPRPRPRPANWPRP is 0.236; for RRIRDRPPRLPRPRPRPMANPRP it is -0.0338.
To RRIRLRPPRLPRPRPRPQIMPRP belongs -0.444; to RRIRYRPPRLPRPRPRPLFWPRP, -0.214.
The figure for RRIRFRPPRLPRPRPRPLRHPRP is 0.353; for RRIRKRPPRLPRPRPRPIVFPRP it is -0.0542.
Turning to RRIRQRPPRLPRPRPRPALPPRP, the “shrunken log2 fold change” value was 0.397.
To RRIRSRPPRLPRPRPRPFPLPRP belongs -0.886; to RRIRCRPPRLPRPRPRPVDCPRP, -0.2; to RRIRLRPPRLPRPRPRPFAFPRP, -0.442.
To RRIRNRPPRLPRPRPRPIHNPRP belongs -0.976; to RRIRSRPPRLPRPRPRPIWTPRP, -0.254; to RRIRIRPPRLPRPRPRPAHGPRP, 0.188.
To RRIRARPPRLPRPRPRPVVTPRP belongs 0.254; to RRIRCRPPRLPRPRPRPRCKPRP, -0.206; to RRIRQRPPRLPRPRPRPQCTPRP, -0.0165.
On to RRIRWRPPRLPRPRPRPHMWPRP, for which the “shrunken log2 fold change” value is -0.138.
